Paper PMC5389741

Target: PGK1 (UniProt P00558)
Test: GST pull-down with purified proteins
Details: reference: WT GST-ARD1 with mTOR; sites S228

binding against the reference: stronger
Substance: ARD1 (from UniProt P41227) GST-ARD1 S228A with mTOR
